Data: paper PMC7040040
pKd: −log10 of the molar value.

Legend:
[1] = molecular target: humanized PBD-C06 (CDR-grafted IgG1:kappa version) (human); test: SPR; Biacore 3000; antibody captured on a CM5 chip via immobilised anti-mouse or anti-human antibody; monomeric Aβ peptides injected (240 µl, 30 µl/min), running buffer HBS-EP; 1:1 Langmuir binding model
[2] = molecular target: humanized PBD-C06 with A97 of the VH framework substituted by murine T97 (human); test: as above
Sequence of humanized PBD-C06 with A97 of the VH framework substituted by murine T97 (human) (heavy, as listed by the source, chain 1 of 2): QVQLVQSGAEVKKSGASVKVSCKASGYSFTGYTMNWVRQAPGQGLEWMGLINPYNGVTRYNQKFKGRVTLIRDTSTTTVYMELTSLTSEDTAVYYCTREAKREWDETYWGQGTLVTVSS
Sequence of humanized PBD-C06 with A97 of the VH framework substituted by murine T97 (human) (light, as listed by the source, chain 2 of 2): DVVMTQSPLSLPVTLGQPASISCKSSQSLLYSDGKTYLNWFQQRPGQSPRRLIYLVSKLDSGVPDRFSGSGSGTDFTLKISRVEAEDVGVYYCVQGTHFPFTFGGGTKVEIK

Sequence of humanized PBD-C06 (CDR-grafted IgG1:kappa version) (human) (heavy, as listed by the source, chain 1 of 2): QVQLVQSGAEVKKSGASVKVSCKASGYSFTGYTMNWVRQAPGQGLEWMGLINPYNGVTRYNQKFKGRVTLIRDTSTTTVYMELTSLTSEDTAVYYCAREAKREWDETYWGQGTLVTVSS
Sequence of humanized PBD-C06 (CDR-grafted IgG1:kappa version) (human) (light, as listed by the source, chain 2 of 2): as the sequence (light, as listed by the source, chain 2 of 2) above

In the case of pE3-Aβ(3–18) monomer (peptide), the pKd [1] was 7.36 and the pKd [2] was 8.28.
